Source: US8889619B2 (Beijing Dongfang Biotech Co., Ltd., priority 2010, dated 2014)
Where a chain is given by its changes, count along the chain named.

Experiments:
[1] = system: KK-Ay diabetic model mice; assay: Long-term administration experiment, KK-Ay diabetic model mice; assay type: in vivo, mouse; conditions: 1 mg/Kg twice per week; for Relative bioactivity: fast blood glucose decrease vs blank control relative to fusion protein of example 2, after 2 weeks
Method: The drug is given twice per week, and the mice are fasted for 6 h each Wednesday and tested for fast blood glucose, meanwhile their food intake and weight variation are recorded. […] Specifically, long term administration is conducted according to the following protocol: the KK-Ay diabetic model mice are randomized into blank control group (injected only with PBS) and experimental group (injected with 1 mg/Kg of the fusion protein in Table 3). The drug is given twice per week; after 2 weeks, the mice are fasted for 6 h and tested for fasting blood glucose, and the blood glucose decrease of one experimental group is calculated by subtracting the fasting blood glucose of the experimental group from that of the blank control group.

[2] = system: KK-Ay diabetic model mice; assay: Single injection hypoglycemic test, KK-Ay mouse obesity diabetic model; assay type: in vivo; conditions: 1 mg/Kg, single injection through caudal vein, 0-240 min, fasted 2 h
[3] = system: KK-Ay diabetic model mice; assay: Oral glucose tolerance test, KK-Ay diabetic model mice; assay type: in vivo, mouse; conditions: 1 mg/Kg and 0.1 mg/Kg subcutaneously, glucose 1 mg/g by gastric tube 6 h later
human GLP-1 receptor [4] = target: T1, human GLP-1 receptor (Homo sapiens, UniProt P43220); assay: Combining (binding) test with CHO engineering cell line expressing human GLP-1R, flow cytometry; conditions: 4° C. 30 min
T1 construct: expressed in transfected cells; host or cells: CHO (CHO-hGLP1R)
T1 sequence (P43220 24-463): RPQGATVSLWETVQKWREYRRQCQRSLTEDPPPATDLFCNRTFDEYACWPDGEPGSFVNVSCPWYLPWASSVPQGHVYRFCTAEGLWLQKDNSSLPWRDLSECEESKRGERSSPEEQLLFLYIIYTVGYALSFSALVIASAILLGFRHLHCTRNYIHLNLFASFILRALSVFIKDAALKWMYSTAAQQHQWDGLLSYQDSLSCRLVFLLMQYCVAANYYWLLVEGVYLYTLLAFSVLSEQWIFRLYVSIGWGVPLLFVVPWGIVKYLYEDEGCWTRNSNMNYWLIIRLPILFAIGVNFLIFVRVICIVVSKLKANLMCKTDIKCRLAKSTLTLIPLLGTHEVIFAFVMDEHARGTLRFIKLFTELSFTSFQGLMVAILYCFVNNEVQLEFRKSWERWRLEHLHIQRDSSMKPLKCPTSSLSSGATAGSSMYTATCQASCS
Method: After PBS washing, human immunoglobulin γ chain antibody labeled with fluorescein FITC is added, and incubate at 4° C. for 30 min. After PBS washing, 1% paraformaldehyde in PBS is added, mix thoroughly and load the sample, read the mean fluorescence intensity of sample of each concentration in selected zone in the flow cytometry.

[5] = system: db/db diabetic model mice; assay: Single injection hypoglycemic test, db/db mouse obesity diabetic model; assay type: in vivo; conditions: 1 mg/Kg and 0.1 mg/Kg groups, single injection through caudal vein, 0-240 min
human GLP-1 receptor [6] = target: T1, human GLP-1 receptor; assay: cAMP secretion test on human GLP-1 receptor CHO cell (CHO-hGLP1R); assay type: cell-based; conditions: for cAMP concentration: 30 min incubation, CHO-hGLP1R

With “SEQ ID NO: 22: fusion protein: peptide hormone SEQ ID NO: 1 (Exendin-4), linker SEQ ID NO: 3, IgG4-Fc” the Relative bioactivity ([1]; fasted 6 h) was 75%.

B1: LAX09: Exendin-4 (SEQ ID NO: 1) fused via linker SEQ ID NO: 3 to Fc fragment of human IgG2; SEQ ID NO: 4 (protein)
chain: HGEGTFTSDLSKQMEEEAVRLFIEWLKDGGPSSGAPPPSGGGGAGGGGVECPPCPAPPVAGPSVFLFPPKPKDTLMISRTPEVTCVVVDVSHEDPEVQFNWYVDGVEVHNAKTKPREEQFNSTFRVVSVLTVVHQDWLNGKEYKCKVSNKGLPAPIEKTISKTKGQPREPQVYTLPPSREEMTKNQVSLTCLVKGFYPSDIAVEWESNGQPENNYKTTPPMLDSDGSFFLYSKLTVDKSRWQQGNVFSCSVMHEALHNHYTQKSLSLSPGK
modifications: The sequence is synthesized
With B1 the “blood glucose of the mouse” value [2] was “under 10 mmol/L”, the “ability to maintain normal blood glucose (oral glucose tolerance)” value [3] was “same good ability to maintain normal blood glucose” and the Mean fluorescence intensity (human GLP-1 receptor [4]; LAX09 mass concentration 0.098 μg/mL) was 14.12. The Mean fluorescence intensity (human GLP-1 receptor [4]; LAX09 mass concentration 0.246 μg/mL) was 17.53, the Mean fluorescence intensity (human GLP-1 receptor [4]; LAX09 mass concentration 0.614 μg/mL) was 21.78 and the Mean fluorescence intensity (human GLP-1 receptor [4]; LAX09 mass concentration 1.536 μg/mL) was 38.01. For the same molecule, the Mean fluorescence intensity (human GLP-1 receptor [4]; LAX09 mass concentration 3.84 μg/mL) was 57.03, the Mean fluorescence intensity (human GLP-1 receptor [4]; LAX09 mass concentration 9.6 μg/mL) was 81.54 and the Mean fluorescence intensity (human GLP-1 receptor [4]; LAX09 mass concentration 24 μg/mL) was 94.81. The Mean fluorescence intensity (human GLP-1 receptor [4]; LAX09 mass concentration 60 μg/mL) was 121.98, the “hypoglycemic effect (blood glucose)” value [5] was “best hypoglycemic effect” and the food intake [1] was “decreases”. The weight [1] was “significantly reduced”, the fast blood glucose ([1]; fasted 6 h, versus PBS group) was “significantly different from that of PBS group” and the EC50 (human GLP-1 receptor [6]; cAMP in CHO-hGLP1R cells) was ~4.5 nM. For the same molecule, the cAMP concentration (human GLP-1 receptor [6]; drug concentration 0.01 nM) was 2, the cAMP concentration (human GLP-1 receptor [6]; drug concentration 0.1 nM) was 5 and the cAMP concentration (human GLP-1 receptor [6]; drug concentration 1 nM) was 31. The cAMP concentration (human GLP-1 receptor [6]; drug concentration 10 nM) was 115 and the cAMP concentration (human GLP-1 receptor [6]; drug concentration 1000 nM) was 153.

B2: SEQ ID NO: 5: fusion protein: peptide hormone SEQ ID NO: 6 (differs from SEQ ID NO:1 in 2 sites), linker SEQ ID NO: 3, IgG2-Fc (protein)
chain: B1 chain with G2T, L10A
modifications: The sequence is synthesized
Work on B2 yielded a Relative bioactivity ([1]; fasted 6 h) of 99%.

B3: SEQ ID NO: 11: fusion protein: peptide hormone SEQ ID NO: 12 (differs from SEQ ID NO:1 in 6 sites), linker SEQ ID NO: 3, IgG2-Fc (protein)
chain: B1 chain with G2A, L10A, K12L, Q13T, M14Y, V19C
modifications: The sequence is synthesized
B3 gave a Relative bioactivity ([1]; fasted 6 h) of 96%.

B4: SEQ ID NO: 9: fusion protein: peptide hormone SEQ ID NO: 10 (differs from SEQ ID NO:1 in 4 sites), linker SEQ ID NO: 3, IgG2-Fc (protein)
chain: B1 chain with G2A, L10A, K12L, Q13T
modifications: The sequence is synthesized
Work on B4 yielded a Relative bioactivity ([1]; fasted 6 h) of 97%.

B5: SEQ ID NO: 7: fusion protein: peptide hormone SEQ ID NO: 8 (differs from SEQ ID NO:1 in 3 sites), linker SEQ ID NO: 3, IgG2-Fc (protein)
chain: B1 chain with G2T, L10A, K12L
modifications: The sequence is synthesized
B5 was tested, and the Relative bioactivity ([1]; fasted 6 h) was 98%.

B6: SEQ ID NO: 13: fusion protein: peptide hormone SEQ ID NO: 14 (GLP-1A8G), linker SEQ ID NO: 3, IgG2-Fc (protein)
chain: AAEGTFTGDVSSYLEGQAAKEFIAWLVKGRGGGGGAGGGGVECPPCPAPPVAGPSVFLFPPKPKDTLMISRTPEVTCVVVDVSHEDPEVQFNWYVDGVEVHNAKTKPREEQFNSTFRVVSVLTVVHQDWLNGKEYKCKVSNKGLPAPIEKTISKTKGQPREPQVYTLPPSREEMTKNQVSLTCLVKGFYPSDIAVEWESNGQPENNYKTTPPMLDSDGSFFLYSKLTVDKSRWQQGNVFSCSVMHEALHNHYTQKSLSLSPGK
modifications: The sequence is synthesized
With B6 the Relative bioactivity ([1]; fasted 6 h) was 95%.

B7: SEQ ID NO: 15: fusion protein: peptide hormone SEQ ID NO: 16 (differs from SEQ ID NO:2 in 3 sites), linker SEQ ID NO: 3, IgG2-Fc (protein)
chain: HTEGTFTSDASSYLEGQACKEFIAWLVKGRGGGGAGGGGVECPPCPAPPVAGPSVFLFPPKPKDTLMISRTPEVTCVVVDVSHEDPEVQFNWYVDGVEVHNAKTKPREEQFNSTFRVVSVLTVVHQDWLNGKEYKCKVSNKGLPAPIEKTISKTKGQPREPQVYTLPPSREEMTKNQVSLTCLVKGFYPSDIAVEWESNGQPENNYKTTPPMLDSDGSFFLYSKLTVDKSRWQQGNVFSCSVMHEALHNHYTQKSLSLSPGK
modifications: The sequence is synthesized
In the case of B7, the Relative bioactivity ([1]; fasted 6 h) is reported as 94%.

B8: SEQ ID NO: 17: fusion protein: peptide hormone SEQ ID NO: 18 (differs from SEQ ID NO:2 in 3 sites), linker SEQ ID NO: 3, IgG2-Fc (protein)
chain: B7 chain with A10L, C19S
modifications: The sequence is synthesized
For B8, the Relative bioactivity ([1]; fasted 6 h) was 93%.

B9: SEQ ID NO: 21: fusion protein: peptide hormone SEQ ID NO: 2 (GLP-1 (7-36) NH2), linker SEQ ID NO: 3, IgG2-Fc (protein)
chain: B7 chain with T2A, A10V, C19A
modifications: The sequence is synthesized
For B9, the Relative bioactivity ([1]; fasted 6 h) was 91%.

B10: SEQ ID NO: 19: fusion protein: peptide hormone SEQ ID NO: 20 (differs from SEQ ID NO:2 in 2 sites), linker SEQ ID NO: 3, IgG2-Fc (protein)
chain: B7 chain with T2A, A10L, C19I
modifications: The sequence is synthesized
With B10 the Relative bioactivity ([1]; fasted 6 h) was 92%.
